Experimental data as given in patent publication US20260008830A1 (FUNDACI CENTRE DE REGULACI GEN MICA, published 2026).

T1: IL-22 receptors R1 and R2 on HEK-Blue IL-22 reporter cells (UniProt Q8N6P7 16-574; Q08334 20-325, limits assumed)
T1 sequence (looked up) 1: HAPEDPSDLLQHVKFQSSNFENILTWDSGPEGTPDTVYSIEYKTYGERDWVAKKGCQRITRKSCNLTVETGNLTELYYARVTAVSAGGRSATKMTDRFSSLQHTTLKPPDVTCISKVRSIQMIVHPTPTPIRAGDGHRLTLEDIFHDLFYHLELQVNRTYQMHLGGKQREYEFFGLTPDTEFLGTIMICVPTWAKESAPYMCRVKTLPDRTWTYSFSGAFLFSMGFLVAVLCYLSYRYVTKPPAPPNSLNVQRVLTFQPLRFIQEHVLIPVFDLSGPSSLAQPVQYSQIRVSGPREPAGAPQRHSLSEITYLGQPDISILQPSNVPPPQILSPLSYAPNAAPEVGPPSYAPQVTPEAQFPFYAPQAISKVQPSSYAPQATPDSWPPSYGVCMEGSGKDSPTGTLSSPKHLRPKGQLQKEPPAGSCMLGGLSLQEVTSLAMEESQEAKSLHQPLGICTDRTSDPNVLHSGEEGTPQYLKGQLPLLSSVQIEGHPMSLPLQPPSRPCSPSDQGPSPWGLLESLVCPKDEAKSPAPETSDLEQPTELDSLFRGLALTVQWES
T1 sequence (looked up) 2: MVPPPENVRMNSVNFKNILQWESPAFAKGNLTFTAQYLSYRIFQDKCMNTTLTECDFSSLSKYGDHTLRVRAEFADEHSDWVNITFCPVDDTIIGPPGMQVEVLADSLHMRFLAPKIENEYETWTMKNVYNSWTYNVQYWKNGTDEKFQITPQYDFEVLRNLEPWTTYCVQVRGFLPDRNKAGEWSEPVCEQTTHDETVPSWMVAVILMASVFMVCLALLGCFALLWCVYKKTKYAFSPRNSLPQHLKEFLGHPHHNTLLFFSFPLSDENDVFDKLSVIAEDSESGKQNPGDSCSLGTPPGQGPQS

T2: IFN-gamma receptor on HEK-Dual cells (Human IFN-γ SEAP/Luciferase Reporter Cells, hkd-ifng)
T2 sequence (P15260 whole entry, looked up): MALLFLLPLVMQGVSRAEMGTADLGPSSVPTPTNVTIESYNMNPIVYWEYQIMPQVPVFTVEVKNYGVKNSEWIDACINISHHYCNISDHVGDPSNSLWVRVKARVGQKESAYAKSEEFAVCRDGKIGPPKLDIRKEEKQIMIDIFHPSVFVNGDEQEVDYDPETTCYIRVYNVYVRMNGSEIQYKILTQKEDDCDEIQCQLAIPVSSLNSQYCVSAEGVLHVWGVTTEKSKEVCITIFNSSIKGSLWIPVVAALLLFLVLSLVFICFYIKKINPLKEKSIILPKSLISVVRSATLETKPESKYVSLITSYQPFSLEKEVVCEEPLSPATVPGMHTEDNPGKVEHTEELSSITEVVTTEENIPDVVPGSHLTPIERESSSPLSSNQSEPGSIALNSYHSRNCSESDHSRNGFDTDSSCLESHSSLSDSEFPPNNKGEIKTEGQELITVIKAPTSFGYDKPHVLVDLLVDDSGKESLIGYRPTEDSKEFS
T2 sequence (P38484 whole entry, looked up): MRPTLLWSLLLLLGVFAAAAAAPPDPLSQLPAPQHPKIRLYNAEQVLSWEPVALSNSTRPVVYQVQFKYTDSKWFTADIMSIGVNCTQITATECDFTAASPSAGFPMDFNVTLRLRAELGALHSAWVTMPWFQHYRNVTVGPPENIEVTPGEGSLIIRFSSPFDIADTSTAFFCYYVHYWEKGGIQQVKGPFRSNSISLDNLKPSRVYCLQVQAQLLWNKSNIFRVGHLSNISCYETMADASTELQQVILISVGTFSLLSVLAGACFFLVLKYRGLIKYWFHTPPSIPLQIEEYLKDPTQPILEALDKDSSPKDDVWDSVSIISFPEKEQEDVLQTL

T3: IL-10 receptors R1 and R2 on HEK-Blue IL-10 reporter cells (UniProt Q13651 22-578; Q08334 20-325, limits assumed)
T3 sequence (looked up) 1: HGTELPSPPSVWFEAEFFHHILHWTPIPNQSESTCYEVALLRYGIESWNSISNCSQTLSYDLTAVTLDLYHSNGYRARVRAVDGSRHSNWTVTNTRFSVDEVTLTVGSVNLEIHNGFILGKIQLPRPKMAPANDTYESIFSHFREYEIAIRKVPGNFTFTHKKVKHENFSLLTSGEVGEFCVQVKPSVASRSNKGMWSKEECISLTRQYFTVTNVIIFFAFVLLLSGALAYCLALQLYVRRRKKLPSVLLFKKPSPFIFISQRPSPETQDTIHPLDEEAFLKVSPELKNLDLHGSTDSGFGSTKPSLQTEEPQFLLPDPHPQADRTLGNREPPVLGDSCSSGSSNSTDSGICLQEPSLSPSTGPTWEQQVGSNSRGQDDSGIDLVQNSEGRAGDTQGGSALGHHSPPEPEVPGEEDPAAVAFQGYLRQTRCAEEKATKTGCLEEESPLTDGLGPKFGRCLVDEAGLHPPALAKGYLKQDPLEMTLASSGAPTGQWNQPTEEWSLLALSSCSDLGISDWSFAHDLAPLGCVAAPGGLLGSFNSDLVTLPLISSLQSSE
T3 sequence (looked up) 2: T1 sequence (looked up) 2

B1: IL22_WT (IL-22 WT expressed in CHO cells) (ligand)
chain: APISSHCRLDKSNFQQPYITNRTFMLAKEASLADNNTDVRLIGEKLFHGVSMSERCYLMKQVLNFTLEEVLFPQSDRFQPYMQEVVPFLARLSNRLSTCHIEGDDLHIQRNVQKLKDTVKKLGESGEIKAIGELDLLFMSLRNACI
B2: ORKIFNg-002 (Foldikine-IFNG, single chain dimeric IFN gamma) (ligand)
chain: GSQDPYVKEAENLKKYFNAGHSDVADNGTLFLGILKNWKEESDRKIMQSQIVSFYFKLFKNFKDDQSIQKSVETIKEDMNVKFFNSNKKKRDDFEKLTNYSVTDLNVQRKAIHELIQVMASKPHPGQLWAYVKEAENLKKYFNAGHSDVADNGTLFLGILKNWKEESDRKIMQSQIVSFYFKLFKNFKDDQSIQKSVETIKEDMNVKFFNSNKKKRDDFEKLTNYSVTDLNVQRKAIHELIQVMAELSPAA
B3: MutSC1_controlcenter_21 (ligand)
chain: KSKAVEQVKNAFNKLQEKGIYKAMSEFDIFINYIEAYMTMNFGGLDYLPNMLRDLRDAFSRVKTFFQMKDQLDNLLLKESLLEDFKGYLGCQALSEMIQFYLEEVMPQAENQDPDIKAHVNSLGENLKTLRLRLRRCHRFLPCENKSKAVEQVKNAFNKLQEKGIYKAMSEFDIFINYIEAYMTMNFGGLDYLPNMLRDLRDAFSRVKTFFQMKDQLDNLLLKESLLEDFKGYLGCQALSEMIQFYLEEVMPQAENQDPDIKAHVNSLGENLKTLRLRLRRCHFLPCEN
B4: ORK22-014 (Foldikine-22, two polyGly InterLinkers) (ligand)
chain: APISESGEIKAIGELDLLFMSLRNACIGGGGGGGGGGAPISSHCRLDKSNFQQPYITNRTFMLAKEASLADNNTDVRLIGEKLFHGVSMSERCYLMKQVLNFTLEEVLFPQSDRFQPYMQEVVPFLARLSNRLSTCHIEGDDLHIQRNVQKLKDTVKKLGESGEIKAIGELDLLFMSLRNACIGGGGGGGGGGAPISSHCRLDKSNFQQPYITNRTFMLAKEASLADNNTDVRLIGEKLFHGVSMSERCYLMKQVLNFTLEEVLFPQSDRFQPYMQEVVPFLARLSNRLSTCHIEGDDLHIQRNVQKLKDTVKKLG
B5: ORK22-012 (Foldikine-22, two InterLinkers GGPPPPPPGG) (ligand)
chain: APISESGEIKAIGELDLLFMSLRNACIGGPPPPPPGGAPISSHCRLDKSNFQQPYITNRTFMLAKEASLADNNTDVRLIGEKLFHGVSMSERCYLMKQVLNFTLEEVLFPQSDRFQPYMQEVVPFLARLSNRLSTCHIEGDDLHIQRNVQKLKDTVKKLGESGEIKAIGELDLLFMSLRNACIGGPPPPPPGGAPISSHCRLDKSNFQQPYITNRTFMLAKEASLADNNTDVRLIGEKLFHGVSMSERCYLMKQVLNFTLEEVLFPQSDRFQPYMQEVVPFLARLSNRLSTCHIEGDDLHIQRNVQKLKDTVKKLG

Columns and labels:
Assay in all cases: cell-based or functional assay
[1] = target: T1, IL-22 receptors R1 and R2 on HEK-Blue …
[2] = target: T2, IFN-gamma receptor on HEK-Dual cells …
[3] = target: T3, IL-10 receptors R1 and R2 on HEK-Blue …

| Binder | EC-50 (IL-22 reporter HEK blue cells, SEAP, absorbance 630 nm) [1] [pM] | other results |
| --- | --- | --- |
| B1 | 97.6 |  |
| B2 |  | EC50 (HEK Dual cells responding to IFNγ) [2]: 32.8 pM |
| B3 |  | activation of HEK blue cells, apparent KD fit (drop against MutSC1) [3]: ~2.5 fold |
| B4 | 2420 |  |
| B5 | 43.3 |  |
